Results: the DeepSol protein solubility set

Test: soluble on expression in E. coli; label from the status in PepcDB or PDB records

Sequence	soluble on expression in E. coli
MSVPFLQQYRVGSYILKQKLAGNKRYPLVLMLEPLFQCNLACAGCGKIDYPEETLRRRLSVDECLHAVDECGAPVVSIAGGEPLIHKEMPQIVQGIIQRKKFVYLCTNALLLDTRMDDYQPSPYLTFSIHLDGNRERHDASVCREGVYDKVIPVIEQALQRGFRVTVNCTLFQSETAEEVAEFFDTATKLGVEGINVSPGFSYEHAPRQDVFLQRSVSKRLFRSIFEIGKKRKLPWKFNHSSLYLDFLAGNQSYKCTPWGNPTRNLFGWQRPCYLLVDEGYATSFRELMEETDWDRYGVGNNPKCANCMAHCGFEPTAINDTFAHPLKALRVSMRGPRVEGPMALDPLQTSSESQHNTDKRKPFPIPVTVEHKTVAPSSDHSSGPDN	not soluble
MSVMADRLDNMDITVSSPDGNIEGRYRRRGELTLEFRGDAYEQYRQHTLEHQLARLATLLWTGYQREYDAAVSEVVGHPVKDERHLWDANRRRYREAQRATAASGMSAGGRVYIENTGMLSWHVVIRDGTLGELTAAEFASECLSAFDALWRDYRSKMAALRAEHYGLSFASKRRERQPRH	not soluble
MKLDAKSTIETGKAILGIELGSTRIKAVLIDQENKPIAQGSHTWENQLVNGLWTYSIDAIWSGLQDCYADLRSNVKKLYDTEIETLAAIGVSAMMHGYMPFNEKEEILVPFRTWRNTNTGRAAAELSELFVYNIPLRWSISHLYQAILDNEAHVKDIKFLTTLAGYVHWQITGEKVLGIGDASGMLPIDPTTNNYSAEMVAKFNNLIASKEYSWKLEDILPKVLSAGENAGVLTPEGCKKLDASGHLKAGIPVCPPEGDA	not soluble
MAHHHHHHMTVARDHDIDDHDTSFTSFGGERPPFERIPVPSMASKEYTENLPAFDSDRPMPPPRSVFERFSRVMQLQFGQDPDMPLLGSRAERKYRSWLDYVTSPPSPLLPRNYVDAYTRPNPCPEEYWWASWRWPRIKYVNAKVPPPVDGKYNDYYHYLAYKNWMERERDVYVAHANLVNEMAMRCLVKEGQYNAAKNCRHLYHKGFAMSRMEELNQTLLYMALTGNAAIRETPYPENFVEEKRKIYDDWLFRTRMKKPGDVA	not soluble
MAHHHHHHMLCTFTTLHERIRILTDAHQLILPEELEAEFPDEAQLIKSMLAANPLQRPQIRKFLRQINKLIVALEAQESDEEAEKPPPPSPLDGTEHSESRNGNDEAATAALVDDSASALATATATSKLGNTPLSTSVAAASSSRGRPVAADLASGGHADSFSDVQDSFSSPLGEQKSRVALLPVFHSEAATGTSVAATSPMAATTSVHDTNAASAGKHVTRRGDSLASLHASTMVKRGNTYHHRRRGSASPNMEAEIGRLHICEMVATGSASRQGFFANDPYGLPTTPVMYTEDADLSTILKRDLQDRTVSAPD	not soluble
MGSDKIHHHHHHMTNENLCAGRNRYDGVSIDFFSDADLRAIDSATMDVFQNPGIQVSDAESRALFKEAGCDVNEKTMVVKIPEHVVRRAIMTAPSKITLYGREKQHTFTQQAGGKVHYTCFGTGVKMCKYEAPGVFKTVDSTEEDLANTARVCDWADNIDSYSLAVSARDWAGKGAQDVHETFTPLMNTSKHFFHIDPVGENVEYYWDILKAYYGGDEEQARSRPIFSELLCPTSPLKIGTNACQLILKSVNFGIPINVISMAMSGASCPVHLAGTLVTHNAEVLSGIVLAQLASPGAKVWYGSSTTAFDLKHGTAPVGSPELGLISAAVAKLGQYYDLPTYVAST	not soluble
MAVTDLSLTNSSLMPTLNPMIQQLALAIAASWQSLPLKPYQLPEDLGYVEGRLEGEKLVIENRCYQTPQFRKMHLELAKVGKGLDILHCVMFPEPLYGLPLFGCNIVAGPGGVSAAIADLSPTQSDRQLPAAYQKSLAELGQPEFEQQRELPPWGEIFSEYCLFIRPSNVTEEERFVQRVVDFLQIHCHQSIVAEPLSEAQTLEHRQGQIHYCQQQQKNDKTRRVLEKAFGEAWAERYMSQVLFDVIQ	soluble
SKYGLQDSDEEEEEHPSKTSTKKLKTAPLPPASQTTPLQMALNGKPAPPPQVEKKGQLEHHHHH	soluble
MAQLYFYYSAMNAGKSTALLQSSYNYQERGMRTVVYTAEIDDRFGAGKVSSRIGLSSPAKLFNQNSSLFDEIRAEHEQQAIHCVLVDECQFLTRQQVYELSEVVDQLDIPVLCYGLRTDFRGELFIGSQYLLAWSDKLVELKTICFCGRKASMVLRLDQAGRPYNEGEQVVIGGNERYVSVCRKHYKEALQVGSLTAIQERHRHD	not soluble
